Non-standard residues stand in square brackets, D forms with d. Dap = NC[C@H](N)C(=O)O
Key:
Experiment in all cases: cell-based or functional assay
[1] = target: T1, mouse melanocortin 1 receptor (mouse, UniProt Q01727 1-315)
[2] = target: T2, mouse melanocortin 3 receptor (mouse, UniProt P33033 1-323)
[3] = target: T3, mouse melanocortin 4 receptor (mouse, UniProt P56450 1-332)
[4] = target: T4, mouse melanocortin 5 receptor (mouse, UniProt P41149 1-325)
[5] = target: T1, mouse melanocortin 1 receptor; remark: listed apart in the source
[6] = target: T3, mouse melanocortin 4 receptor; remark: listed apart in the source
[7] = target: T4, mouse melanocortin 5 receptor; remark: listed apart in the source
[8] = target: T2, mouse melanocortin 3 receptor; remark: listed apart in the source

T1 sequence (Q01727 whole entry): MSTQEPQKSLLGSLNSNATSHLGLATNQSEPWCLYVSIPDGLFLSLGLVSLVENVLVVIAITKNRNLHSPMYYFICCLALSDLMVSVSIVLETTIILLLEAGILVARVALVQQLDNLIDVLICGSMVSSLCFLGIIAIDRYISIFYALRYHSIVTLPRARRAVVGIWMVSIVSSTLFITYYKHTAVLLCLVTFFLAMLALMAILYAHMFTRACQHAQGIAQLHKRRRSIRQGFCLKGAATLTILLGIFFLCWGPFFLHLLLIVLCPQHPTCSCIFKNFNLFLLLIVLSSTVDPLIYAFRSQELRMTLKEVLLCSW
T3 sequence (P56450 whole entry): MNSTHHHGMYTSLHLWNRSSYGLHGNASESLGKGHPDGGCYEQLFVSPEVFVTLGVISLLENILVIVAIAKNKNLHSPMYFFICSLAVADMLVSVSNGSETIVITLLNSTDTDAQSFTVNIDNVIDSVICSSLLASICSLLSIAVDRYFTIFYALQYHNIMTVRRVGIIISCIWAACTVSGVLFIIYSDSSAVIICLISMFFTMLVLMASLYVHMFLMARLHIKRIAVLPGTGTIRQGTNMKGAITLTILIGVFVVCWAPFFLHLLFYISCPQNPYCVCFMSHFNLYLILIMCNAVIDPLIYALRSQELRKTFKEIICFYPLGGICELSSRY
T4 sequence (P41149 whole entry): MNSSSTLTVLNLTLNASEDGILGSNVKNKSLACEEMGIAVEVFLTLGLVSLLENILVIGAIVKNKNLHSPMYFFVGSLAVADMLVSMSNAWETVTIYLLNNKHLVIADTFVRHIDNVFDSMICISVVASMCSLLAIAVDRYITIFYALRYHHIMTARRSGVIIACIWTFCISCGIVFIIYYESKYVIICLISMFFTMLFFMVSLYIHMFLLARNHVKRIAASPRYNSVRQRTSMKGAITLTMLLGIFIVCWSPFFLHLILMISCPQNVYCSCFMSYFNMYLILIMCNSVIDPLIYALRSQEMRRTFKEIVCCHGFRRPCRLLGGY
T2 sequence (P33033 whole entry): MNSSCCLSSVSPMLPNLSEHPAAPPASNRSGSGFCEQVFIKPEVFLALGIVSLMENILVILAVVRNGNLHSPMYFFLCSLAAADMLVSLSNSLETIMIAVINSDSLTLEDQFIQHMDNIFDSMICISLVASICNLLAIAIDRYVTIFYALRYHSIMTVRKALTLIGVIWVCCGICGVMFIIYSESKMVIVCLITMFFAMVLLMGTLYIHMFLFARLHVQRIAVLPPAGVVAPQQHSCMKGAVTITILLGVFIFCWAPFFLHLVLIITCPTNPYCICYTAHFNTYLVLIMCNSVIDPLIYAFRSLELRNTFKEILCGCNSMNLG

cyclo(PH[dF]RWNAF[dP]) (also: TFA salt) [MDE5-149-2c, c[Pro-His-DPhe-Arg-Trp-Asn-Ala-Phe-DPro]]
EC50 (nM), agonist, cAMP AlphaScreen [1]: 0.35 nM | EC50 (nM), agonist, cAMP AlphaScreen [2]: 32 nM | EC50 (nM), agonist, cAMP AlphaScreen [3]: 1.4 nM | EC50 (nM), agonist, cAMP AlphaScreen [4]: 0.45 nM

cyclo(P[dF]RW[Dap]A[dP]) (also: TFA salt) [MDE6-5-1c, c[Pro-DPhe-Arg-Trp-Dap-Ala-DPro]]
EC50 (nM), agonist, cAMP AlphaScreen [1]: 600 nM | percent maximal stimulatory response observed at 100 µM [2]: 70% | EC50 (nM), agonist, cAMP AlphaScreen [3]: 150 nM | EC50 (nM), agonist, cAMP AlphaScreen [4]: 48 nM

cyclo(P[dF]RWNA[dP]) (also: TFA salt) [MDE6-3-1c, c[Pro-DPhe-Arg-Trp-Asn-Ala-DPro]]
EC50 (nM), agonist, cAMP AlphaScreen [1]: 500 nM | percent maximal stimulatory response observed at 100 µM [2]: 55% | EC50 (nM), agonist, cAMP AlphaScreen [3]: 420 nM | EC50 (nM), agonist, cAMP AlphaScreen [4]: 70 nM

cyclo(P[dF]RWNAF[dP]) (also: TFA salt) [MDE5-149-1c, c[Pro-DPhe-Arg-Trp-Asn-Ala-Phe-DPro]]
fold decreased potency relative to MDE5-149-2c [5]: 1140 fold | fold decreased potency relative to MDE5-149-2c [6]: 90 fold | fold decreased potency relative to MDE5-149-2c [7]: 90 fold | EC50 (nM), agonist, cAMP AlphaScreen [1]: 400 nM | percent maximal stimulatory response observed at 100 µM [2]: 45% | EC50 (nM), agonist, cAMP AlphaScreen [3]: 130 nM | EC50 (nM), agonist, cAMP AlphaScreen [4]: 40 nM

cyclo(PH[dF]RW[dP]) (also: TFA salt) [MDE5-147-2c, c[Pro-His-DPhe-Arg-Trp-DPro]]
EC50 (nM), agonist, cAMP AlphaScreen [1]: 900 nM | percent maximal stimulatory response observed at 100 µM [2]: 60% | percent maximal stimulatory response observed at 100 µM [3]: 65% | EC50 (nM), agonist, cAMP AlphaScreen [4]: 6000 nM

cyclo(PH[dF]RW[Dap][dP]) (also: TFA salt) [MDE6-12-2c, c[Pro-His-DPhe-Arg-Trp-Dap-DPro]]
fold decrease of agonist potency relative to MDE6-5-2c [5]: 418 fold | fold decrease of agonist potency relative to MDE6-5-2c [6]: 593 fold | fold decrease of agonist potency relative to MDE6-5-2c [7]: 1100 fold | EC50 (nM), agonist, cAMP AlphaScreen [1]: 460 nM | percent maximal stimulatory response observed at 100 µM [2]: 65% | EC50 (nM), agonist, cAMP AlphaScreen [3]: 950 nM | EC50 (nM), agonist, cAMP AlphaScreen [4]: 330 nM

cyclo(PH[dF]RW[Dap]A[dP]) (also: TFA salt) [MDE6-5-2c, c[Pro-His-DPhe-Arg-Trp-Dap-Ala-DPro]]
EC50 (nM), agonist, cAMP AlphaScreen [1]: 1.1 nM | EC50 (nM), agonist, cAMP AlphaScreen [2]: 40 nM | EC50 (nM), agonist, cAMP AlphaScreen [3]: 1.6 nM | EC50 (nM), agonist, cAMP AlphaScreen [4]: 0.3 nM

cyclo(PH[dF]RW[Dap]AF[dP]) (also: TFA salt) [MDE5-151-2c, c[Pro-His-DPhe-Arg-Trp-Dap-Ala-Phe-DPro]]
fold decreased potency relative to MDE5-149-2c [5]: 70 fold | EC50 (nM), agonist, cAMP AlphaScreen [1]: 24 nM | EC50 (nM), agonist, cAMP AlphaScreen [2]: 260 nM | apparent EC50 (nM), partial agonist, cAMP AlphaScreen [3]: 23 nM | partial agonist, percent maximal NDP stimulation [3]: 70% | EC50 (nM), agonist, cAMP AlphaScreen [4]: 18 nM

cyclo(P[dF]RW[dP]) (also: TFA salt) [MDE5-147-1c, c[Pro-DPhe-Arg-Trp-DPro]]
EC50 (nM), agonist, cAMP AlphaScreen [1]: 1800 nM | EC50 (nM), agonist, cAMP AlphaScreen (lacked agonist activity at up to 100 µM) [2]: > 100000 nM | percent maximal stimulatory response observed at 100 µM [3]: 50% | percent maximal stimulatory response observed at 100 µM [4]: 75%

cyclo(PH[dF]RWNA[dP]) (also: TFA salt) [MDE6-3-2c, c[Pro-His-DPhe-Arg-Trp-Asn-Ala-DPro]]
fold loss of agonist potency relative to MDE5-149-2c [5]: 34 fold | fold loss of agonist potency relative to MDE5-149-2c [8]: 9 fold | fold loss of agonist potency relative to MDE5-149-2c [6]: 21 fold | fold loss of agonist potency relative to MDE5-149-2c [7]: 5 fold | EC50 (nM), agonist, cAMP AlphaScreen [1]: 12 nM | EC50 (nM), agonist, cAMP AlphaScreen [2]: 300 nM | EC50 (nM), agonist, cAMP AlphaScreen [3]: 29 nM | EC50 (nM), agonist, cAMP AlphaScreen [4]: 2.1 nM

cyclo(P[dF]RW[Dap]AF[dP]) (also: TFA salt) [MDE5-151-1c, c[Pro-DPhe-Arg-Trp-Dap-Ala-Phe-DPro]]
apparent EC50 (nM), partial agonist, cAMP AlphaScreen [1]: 190 nM | partial agonist, percent maximal NDP stimulation [1]: 45% | apparent EC50 (nM), partial agonist, cAMP AlphaScreen [2]: 3000 nM | partial agonist, percent maximal NDP stimulation [2]: 70% | EC50 (nM), agonist, cAMP AlphaScreen [3]: 100 nM | EC50 (nM), agonist, cAMP AlphaScreen [4]: 46 nM

cyclo(P[dF]RWN[dP]) (also: TFA salt) [MDE6-10-1c, c[Pro-DPhe-Arg-Trp-Asn-DPro]]
fold increase of agonist potency over MDE5-149-1c [5]: 10 fold | fold decrease of agonist potency against MDE5-149-1c [6]: 8 fold | EC50 (nM), agonist, cAMP AlphaScreen [1]: 40 nM | EC50 (nM), agonist, cAMP AlphaScreen (lacked agonist activity at up to 100 µM) [2]: > 100000 nM | EC50 (nM), agonist, cAMP AlphaScreen [3]: 1100 nM | percent maximal stimulatory response observed at 100 µM [4]: 25%

cyclo(PH[dF]RWN[dP]) (also: TFA salt) [MDE6-10-2c, c[Pro-His-DPhe-Arg-Trp-Asn-DPro]]
fold decrease of agonist potency relative to MDE5-149-2c [5]: 143 fold | fold decrease of agonist potency relative to MDE5-149-2c [6]: 121 fold | fold decrease of agonist potency relative to MDE5-149-2c [7]: 37 fold | EC50 (nM), agonist, cAMP AlphaScreen [1]: 50 nM | apparent EC50 (nM), partial agonist, cAMP AlphaScreen [2]: 510 nM | partial agonist, percent maximal NDP stimulation [2]: 65% | EC50 (nM), agonist, cAMP AlphaScreen [3]: 170 nM | EC50 (nM), agonist, cAMP AlphaScreen [4]: 16.8 nM

cyclo(P[dF]RW[Dap][dP]) (also: TFA salt) [MDE6-12-1c, c[Pro-DPhe-Arg-Trp-Dap-DPro]]
apparent EC50 (nM), partial agonist, cAMP AlphaScreen [1]: 110 nM | partial agonist, percent maximal NDP stimulation [1]: 75% | EC50 (nM), agonist, cAMP AlphaScreen (lacked agonist activity at up to 100 µM) [2]: > 100000 nM | percent maximal stimulatory response observed at 100 µM [3]: 35% | EC50 (nM), agonist, cAMP AlphaScreen (lacked agonist activity at up to 100 µM) [4]: > 100000 nM

Reference: patent publication US20180118789A1 (REGENTS OF THE UNIVERSITY OF MINNESOTA, published 2018)
